Reference: patent US20250352661A1 (MYTHIC THERAPEUTICS, published 2025)

target: T1, Human LRRC15 Protein, His Tag (Acro Biosystems) (human, UniProt Q8TF66 22-538, limits assumed); assay: BLI; dissociation pH 7.4 black, pH 5.4 grey [1/2); D00025 FIG. 6B (1/2]
T1 construct: not shown: His tag
T1 sequence (looked up): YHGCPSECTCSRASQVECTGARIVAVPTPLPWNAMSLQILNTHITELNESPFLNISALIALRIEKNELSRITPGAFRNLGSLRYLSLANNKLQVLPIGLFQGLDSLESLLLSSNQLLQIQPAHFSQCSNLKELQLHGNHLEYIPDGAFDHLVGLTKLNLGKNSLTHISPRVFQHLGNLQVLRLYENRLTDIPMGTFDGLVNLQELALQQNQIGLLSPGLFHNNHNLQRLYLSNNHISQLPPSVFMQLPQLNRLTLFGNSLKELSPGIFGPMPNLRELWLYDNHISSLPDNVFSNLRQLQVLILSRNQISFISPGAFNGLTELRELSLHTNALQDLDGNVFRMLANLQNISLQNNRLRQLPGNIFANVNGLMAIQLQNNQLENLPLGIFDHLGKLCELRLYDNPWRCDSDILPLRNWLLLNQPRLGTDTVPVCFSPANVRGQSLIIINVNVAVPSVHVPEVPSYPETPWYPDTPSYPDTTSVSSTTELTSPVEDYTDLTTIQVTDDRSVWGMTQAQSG
Protocol: Desirable mutations were transferred to a humanized framework (humanized, MYT 8387-8411). After allowing for four days of protein expression, cell culture supernatants were collected, quantified by SDS-PAGE analysis, and the pH dependence of the variant was evaluated using biolayer interferometry (BLI) on an Octet RED 96e instrument. Briefly, cell culture supernatants were diluted based on qualitative expression level of the variant determined by visual examination of SDS-PAGE gels, 5 μL of cell culture supernatant was diluted into 195 μL of 1×PBST, pH 7.4 for high expressors, 25 μL of cell culture supernatant was diluted into 175 μL of 1×PBST, pH 7.4 for medium expressors and 100 μL of cell culture supernatant was diluted into 100 μL of 1×PBST, pH 7.4 for low expressors for loading onto the sensor tips. The resulting diluted supernatants were then captured on an anti-human Fc sensor (Forte Bio). A baseline was established using 1×PBST (50 mM Potassium Phosphate Buffer+150 mM NaCl+0.05% Tween 20) pH 7.4, and the […] was associated with 50 nM of LRRC15 (Human LRRC15 Protein, His Tag, Acro Biosystems) in 1×PBST pH 7.4 for 120 sec to generate an association curve. In the dissociation phase, the antibody-antigen complex on the sensor was exposed to 1×PBST pH 7.4 or pH 5.4, for 300 sec. Association and dissociation phase curves were examined for the starting ABPC antibody (with no substitutions) and each corresponding antibody variant at pH 5.4 and pH 7.4 to inform on two criteria: a) enhanced dissociation (i.e., higher koff values) at pH 5.4 due to histidine substitution compared to the starting ABPC, (with no substitutions), and b) reduced dissociation at pH 7.4 (i.e., lower koff values) compared to pH 5.4 in the antibody variant itself and with the starting ABPC (with no substitutions).
The methods of Examples 9-10 were applied to RabMAb clone 29F1 (rabbit VH SEQ ID NO: 572 and VL SEQ ID NO: 578; and humanized VH SEQ ID NO: 576 and VL SEQ ID NO: 582).

Row | Binder | binding result
1 | MYT9684 (antibody, V domains shown, also called hu29F1 VH G26E) VH: EVQLVESGGGLVQPGGSLRLSCTASEFSFSSSHWICWVRQAPGKGLEWVGCIYAGSIGSTYYASWAKGRFTISRDTSKNTVYLQMNSLRAEDTAVYYCARAPNDIYNYYFNLWGQGTLVTVSS VL: EIVMTQSPSTLSASVGDRVIITCQASENIYNYLAWYQQKPGKAPKLLIYYASTLASGVPSRFSGSGSGAEFTLTISSLQPDDFATYYCQSGYVSKSSTFGQGTKLTVL | binds
2 | MYT9688 (antibody, V domains shown, also called hu29F1 VH S30E) VH: EVQLVESGGGLVQPGGSLRLSCTASGFSFESSHWICWVRQAPGKGLEWVGCIYAGSIGSTYYASWAKGRFTISRDTSKNTVYLQMNSLRAEDTAVYYCARAPNDIYNYYFNLWGQGTLVTVSS VL: EIVMTQSPSTLSASVGDRVIITCQASENIYNYLAWYQQKPGKAPKLLIYYASTLASGVPSRFSGSGSGAEFTLTISSLQPDDFATYYCQSGYVSKSSTFGQGTKLTVL | binds
3 | MYT9703 (antibody, V domains shown, Humanized 29F1 VH glutamate variant; also called hu29F1 VH S59E) VH: EVQLVESGGGLVQPGGSLRLSCTASGFSFSSSHWICWVRQAPGKGLEWVGCIYAGSIGETYYASWAKGRFTISRDTSKNTVYLQMNSLRAEDTAVYYCARAPNDIYNYYFNLWGQGTLVTVSS VL: EIVMTQSPSTLSASVGDRVIITCQASENIYNYLAWYQQKPGKAPKLLIYYASTLASGVPSRFSGSGSGAEFTLTISSLQPDDFATYYCQSGYVSKSSTFGQGTKLTVL | binds
4 | MYT9685 (antibody, V domains shown, also called hu29F1 VH F27E) VH: EVQLVESGGGLVQPGGSLRLSCTASGESFSSSHWICWVRQAPGKGLEWVGCIYAGSIGSTYYASWAKGRFTISRDTSKNTVYLQMNSLRAEDTAVYYCARAPNDIYNYYFNLWGQGTLVTVSS VL: EIVMTQSPSTLSASVGDRVIITCQASENIYNYLAWYQQKPGKAPKLLIYYASTLASGVPSRFSGSGSGAEFTLTISSLQPDDFATYYCQSGYVSKSSTFGQGTKLTVL | binds
5 | MYT9693 (antibody, V domains shown, also called hu29F1 VH I35E) VH: EVQLVESGGGLVQPGGSLRLSCTASGFSFSSSHWECWVRQAPGKGLEWVGCIYAGSIGSTYYASWAKGRFTISRDTSKNTVYLQMNSLRAEDTAVYYCARAPNDIYNYYFNLWGQGTLVTVSS VL: EIVMTQSPSTLSASVGDRVIITCQASENIYNYLAWYQQKPGKAPKLLIYYASTLASGVPSRFSGSGSGAEFTLTISSLQPDDFATYYCQSGYVSKSSTFGQGTKLTVL | binds
6 | MYT9690 (antibody, V domains shown, also called hu29F1 VH S32E) VH: EVQLVESGGGLVQPGGSLRLSCTASGFSFSSEHWICWVRQAPGKGLEWVGCIYAGSIGSTYYASWAKGRFTISRDTSKNTVYLQMNSLRAEDTAVYYCARAPNDIYNYYFNLWGQGTLVTVSS VL: EIVMTQSPSTLSASVGDRVIITCQASENIYNYLAWYQQKPGKAPKLLIYYASTLASGVPSRFSGSGSGAEFTLTISSLQPDDFATYYCQSGYVSKSSTFGQGTKLTVL | binds
7 | MYT9702 (antibody, V domains shown, also called hu29F1 VH G58E) VH: EVQLVESGGGLVQPGGSLRLSCTASGFSFSSSHWICWVRQAPGKGLEWVGCIYAGSIESTYYASWAKGRFTISRDTSKNTVYLQMNSLRAEDTAVYYCARAPNDIYNYYFNLWGQGTLVTVSS VL: EIVMTQSPSTLSASVGDRVIITCQASENIYNYLAWYQQKPGKAPKLLIYYASTLASGVPSRFSGSGSGAEFTLTISSLQPDDFATYYCQSGYVSKSSTFGQGTKLTVL | binds
8 | MYT9689 (antibody, V domains shown, also called hu29F1 VH S31E) VH: EVQLVESGGGLVQPGGSLRLSCTASGFSFSESHWICWVRQAPGKGLEWVGCIYAGSIGSTYYASWAKGRFTISRDTSKNTVYLQMNSLRAEDTAVYYCARAPNDIYNYYFNLWGQGTLVTVSS VL: EIVMTQSPSTLSASVGDRVIITCQASENIYNYLAWYQQKPGKAPKLLIYYASTLASGVPSRFSGSGSGAEFTLTISSLQPDDFATYYCQSGYVSKSSTFGQGTKLTVL | binds
9 | MYT9699 (antibody, V domains shown, also called hu29F1 VH G55E) VH: EVQLVESGGGLVQPGGSLRLSCTASGFSFSSSHWICWVRQAPGKGLEWVGCIYAESIGSTYYASWAKGRFTISRDTSKNTVYLQMNSLRAEDTAVYYCARAPNDIYNYYFNLWGQGTLVTVSS VL: EIVMTQSPSTLSASVGDRVIITCQASENIYNYLAWYQQKPGKAPKLLIYYASTLASGVPSRFSGSGSGAEFTLTISSLQPDDFATYYCQSGYVSKSSTFGQGTKLTVL | binds
10 | MYT9686 (antibody, V domains shown, also called hu29F1 VH S28E) VH: EVQLVESGGGLVQPGGSLRLSCTASGFEFSSSHWICWVRQAPGKGLEWVGCIYAGSIGSTYYASWAKGRFTISRDTSKNTVYLQMNSLRAEDTAVYYCARAPNDIYNYYFNLWGQGTLVTVSS VL: EIVMTQSPSTLSASVGDRVIITCQASENIYNYLAWYQQKPGKAPKLLIYYASTLASGVPSRFSGSGSGAEFTLTISSLQPDDFATYYCQSGYVSKSSTFGQGTKLTVL | binds
11 | MYT9696 (antibody, V domains shown, also called hu29F1 VH I52E) VH: EVQLVESGGGLVQPGGSLRLSCTASGFSFSSSHWICWVRQAPGKGLEWVGCEYAGSIGSTYYASWAKGRFTISRDTSKNTVYLQMNSLRAEDTAVYYCARAPNDIYNYYFNLWGQGTLVTVSS VL: EIVMTQSPSTLSASVGDRVIITCQASENIYNYLAWYQQKPGKAPKLLIYYASTLASGVPSRFSGSGSGAEFTLTISSLQPDDFATYYCQSGYVSKSSTFGQGTKLTVL | binds
12 | MYT9706 (antibody, V domains shown, also called hu29F1 VH Y62E) VH: EVQLVESGGGLVQPGGSLRLSCTASGFSFSSSHWICWVRQAPGKGLEWVGCIYAGSIGSTYEASWAKGRFTISRDTSKNTVYLQMNSLRAEDTAVYYCARAPNDIYNYYFNLWGQGTLVTVSS VL: EIVMTQSPSTLSASVGDRVIITCQASENIYNYLAWYQQKPGKAPKLLIYYASTLASGVPSRFSGSGSGAEFTLTISSLQPDDFATYYCQSGYVSKSSTFGQGTKLTVL | binds
13 | MYT9704 (antibody, V domains shown, also called hu29F1 VH T60E) VH: EVQLVESGGGLVQPGGSLRLSCTASGFSFSSSHWICWVRQAPGKGLEWVGCIYAGSIGSEYYASWAKGRFTISRDTSKNTVYLQMNSLRAEDTAVYYCARAPNDIYNYYFNLWGQGTLVTVSS VL: EIVMTQSPSTLSASVGDRVIITCQASENIYNYLAWYQQKPGKAPKLLIYYASTLASGVPSRFSGSGSGAEFTLTISSLQPDDFATYYCQSGYVSKSSTFGQGTKLTVL | binds
14 | MYT9691 (antibody, V domains shown, also called hu29F1 VH H33E) VH: EVQLVESGGGLVQPGGSLRLSCTASGFSFSSSEWICWVRQAPGKGLEWVGCIYAGSIGSTYYASWAKGRFTISRDTSKNTVYLQMNSLRAEDTAVYYCARAPNDIYNYYFNLWGQGTLVTVSS VL: EIVMTQSPSTLSASVGDRVIITCQASENIYNYLAWYQQKPGKAPKLLIYYASTLASGVPSRFSGSGSGAEFTLTISSLQPDDFATYYCQSGYVSKSSTFGQGTKLTVL | binds
15 | MYT9701 (antibody, V domains shown, also called hu29F1 VH I57E) VH: EVQLVESGGGLVQPGGSLRLSCTASGFSFSSSHWICWVRQAPGKGLEWVGCIYAGSEGSTYYASWAKGRFTISRDTSKNTVYLQMNSLRAEDTAVYYCARAPNDIYNYYFNLWGQGTLVTVSS VL: EIVMTQSPSTLSASVGDRVIITCQASENIYNYLAWYQQKPGKAPKLLIYYASTLASGVPSRFSGSGSGAEFTLTISSLQPDDFATYYCQSGYVSKSSTFGQGTKLTVL | binds
16 | MYT9705 (antibody, V domains shown, also called hu29F1 VH Y61E) VH: EVQLVESGGGLVQPGGSLRLSCTASGFSFSSSHWICWVRQAPGKGLEWVGCIYAGSIGSTEYASWAKGRFTISRDTSKNTVYLQMNSLRAEDTAVYYCARAPNDIYNYYFNLWGQGTLVTVSS VL: EIVMTQSPSTLSASVGDRVIITCQASENIYNYLAWYQQKPGKAPKLLIYYASTLASGVPSRFSGSGSGAEFTLTISSLQPDDFATYYCQSGYVSKSSTFGQGTKLTVL | binds
